Measurements reported in publication PMC5018360 (2017).

T1: MCL-1 (Mus musculus, UniProt P97287)
T1 chain: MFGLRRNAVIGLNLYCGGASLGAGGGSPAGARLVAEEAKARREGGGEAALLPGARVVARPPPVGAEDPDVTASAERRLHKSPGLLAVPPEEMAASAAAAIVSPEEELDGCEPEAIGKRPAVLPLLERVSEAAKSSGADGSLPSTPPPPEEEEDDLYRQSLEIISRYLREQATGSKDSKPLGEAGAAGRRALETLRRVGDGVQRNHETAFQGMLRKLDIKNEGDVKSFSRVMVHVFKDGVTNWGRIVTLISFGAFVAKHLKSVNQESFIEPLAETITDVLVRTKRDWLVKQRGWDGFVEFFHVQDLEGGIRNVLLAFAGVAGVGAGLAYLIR


Target: T1, MCL-1
Experiment: surface plasmon resonance

| Kd | Binder |
| --- | --- |
| 3.44 µM | GRLAEVCTVLLRLGDELEQIRPSVY [BOK BH3 peptide BH3] |
| 0.134 µM | EDIIRNIARHLAQVGDSMDRSI [BID BH3 peptide] |
